US20210130454A1 (BLUEFIN BIOMEDICINE, published 2021)
One block for each binder: values may come before it.

Legend:
[1] = molecular target: T1, human SEZ6L on cells (293-SEZ6L) (human, UniProt Q9BYH1 29-1024); experiment: flow cytometry on live 293-SEZ6L cells, Alexa Fluor 488 anti-human IgG secondary [continued), panel L]
T1 construct: whole, on cells; also called Seizure 6-like Protein
T1 sequence (looked up): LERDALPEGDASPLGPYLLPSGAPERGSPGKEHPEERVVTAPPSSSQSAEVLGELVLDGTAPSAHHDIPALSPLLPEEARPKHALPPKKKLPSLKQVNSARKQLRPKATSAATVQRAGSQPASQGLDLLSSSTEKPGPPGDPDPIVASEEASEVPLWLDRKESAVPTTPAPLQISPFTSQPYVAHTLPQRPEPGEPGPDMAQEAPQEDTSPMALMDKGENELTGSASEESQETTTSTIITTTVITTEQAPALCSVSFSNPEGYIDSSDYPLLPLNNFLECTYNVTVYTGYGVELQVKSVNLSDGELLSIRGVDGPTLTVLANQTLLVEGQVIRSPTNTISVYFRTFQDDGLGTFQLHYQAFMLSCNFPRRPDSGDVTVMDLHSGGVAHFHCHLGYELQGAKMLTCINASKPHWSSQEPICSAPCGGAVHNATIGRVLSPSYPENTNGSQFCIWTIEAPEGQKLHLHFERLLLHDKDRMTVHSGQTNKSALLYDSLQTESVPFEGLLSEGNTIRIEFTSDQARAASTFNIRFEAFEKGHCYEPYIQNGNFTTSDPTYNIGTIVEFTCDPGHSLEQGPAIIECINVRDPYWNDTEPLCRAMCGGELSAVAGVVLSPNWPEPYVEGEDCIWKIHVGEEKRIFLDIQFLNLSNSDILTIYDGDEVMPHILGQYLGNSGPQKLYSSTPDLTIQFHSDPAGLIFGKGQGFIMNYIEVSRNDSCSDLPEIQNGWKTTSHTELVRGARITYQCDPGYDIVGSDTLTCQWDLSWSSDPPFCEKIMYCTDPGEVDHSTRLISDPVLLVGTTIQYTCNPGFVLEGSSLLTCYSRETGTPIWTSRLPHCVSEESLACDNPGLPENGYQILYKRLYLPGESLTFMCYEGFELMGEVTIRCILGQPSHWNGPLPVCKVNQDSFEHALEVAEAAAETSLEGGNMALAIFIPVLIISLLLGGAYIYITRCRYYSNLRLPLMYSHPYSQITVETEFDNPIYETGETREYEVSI

[2] = molecular target: T2, recombinant cynomolgus monkey SEZ6L2 (cynomolgus monkey, UniProt G7Q0V6 28-844); experiment: BLI (ForteBio Octet Red96), antibody on Protein A biosensors, recombinant target protein in solution
T2 construct: The construct is not described; also called cynomolgus monkey SEZL2

[3] = molecular target: T3, recombinant human SEZ6L2 (extracellular portion of human SEZ6L2 fused to six C-terminal histidine-tag repeats) (human, UniProt Q6UXD5 28-844); experiment: as above
T3 construct: also called SEZ6L2-his; recombinant SEZ6L2
T3 sequence (Q6UXD5 other isoform, or with tags, fused parts or gaps): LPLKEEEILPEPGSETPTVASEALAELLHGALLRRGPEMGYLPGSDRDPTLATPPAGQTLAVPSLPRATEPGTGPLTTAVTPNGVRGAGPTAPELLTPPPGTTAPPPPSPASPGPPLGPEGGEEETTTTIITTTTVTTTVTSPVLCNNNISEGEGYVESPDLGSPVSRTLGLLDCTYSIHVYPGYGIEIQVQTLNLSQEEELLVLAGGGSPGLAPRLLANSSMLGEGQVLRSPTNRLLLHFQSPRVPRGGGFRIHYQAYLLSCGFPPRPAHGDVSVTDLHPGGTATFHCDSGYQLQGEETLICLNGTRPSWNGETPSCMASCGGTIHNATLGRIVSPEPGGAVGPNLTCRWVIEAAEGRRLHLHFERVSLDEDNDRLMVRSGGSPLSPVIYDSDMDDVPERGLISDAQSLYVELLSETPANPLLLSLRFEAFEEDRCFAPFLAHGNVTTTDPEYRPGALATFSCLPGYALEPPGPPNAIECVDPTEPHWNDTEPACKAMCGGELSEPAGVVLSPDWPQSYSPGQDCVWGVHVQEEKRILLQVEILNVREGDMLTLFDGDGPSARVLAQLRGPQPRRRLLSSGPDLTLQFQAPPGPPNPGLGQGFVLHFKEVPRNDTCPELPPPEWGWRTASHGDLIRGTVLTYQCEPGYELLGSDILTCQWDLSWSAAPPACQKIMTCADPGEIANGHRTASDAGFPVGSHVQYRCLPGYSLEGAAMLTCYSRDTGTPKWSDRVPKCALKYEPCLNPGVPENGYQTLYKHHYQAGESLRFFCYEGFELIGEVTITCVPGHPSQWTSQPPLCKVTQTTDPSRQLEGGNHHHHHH

[4] = molecular target: T4, human SEZ6 on cells (293-SEZ6) (human, UniProt Q53EL9 20-994); experiment: flow cytometry on live 293-SEZ6 cells, Alexa Fluor 488 anti-human IgG secondary [continued), panel L]
T4 construct: whole, on cells; also called Seizure Protein 6 Homolog
T4 sequence (looked up): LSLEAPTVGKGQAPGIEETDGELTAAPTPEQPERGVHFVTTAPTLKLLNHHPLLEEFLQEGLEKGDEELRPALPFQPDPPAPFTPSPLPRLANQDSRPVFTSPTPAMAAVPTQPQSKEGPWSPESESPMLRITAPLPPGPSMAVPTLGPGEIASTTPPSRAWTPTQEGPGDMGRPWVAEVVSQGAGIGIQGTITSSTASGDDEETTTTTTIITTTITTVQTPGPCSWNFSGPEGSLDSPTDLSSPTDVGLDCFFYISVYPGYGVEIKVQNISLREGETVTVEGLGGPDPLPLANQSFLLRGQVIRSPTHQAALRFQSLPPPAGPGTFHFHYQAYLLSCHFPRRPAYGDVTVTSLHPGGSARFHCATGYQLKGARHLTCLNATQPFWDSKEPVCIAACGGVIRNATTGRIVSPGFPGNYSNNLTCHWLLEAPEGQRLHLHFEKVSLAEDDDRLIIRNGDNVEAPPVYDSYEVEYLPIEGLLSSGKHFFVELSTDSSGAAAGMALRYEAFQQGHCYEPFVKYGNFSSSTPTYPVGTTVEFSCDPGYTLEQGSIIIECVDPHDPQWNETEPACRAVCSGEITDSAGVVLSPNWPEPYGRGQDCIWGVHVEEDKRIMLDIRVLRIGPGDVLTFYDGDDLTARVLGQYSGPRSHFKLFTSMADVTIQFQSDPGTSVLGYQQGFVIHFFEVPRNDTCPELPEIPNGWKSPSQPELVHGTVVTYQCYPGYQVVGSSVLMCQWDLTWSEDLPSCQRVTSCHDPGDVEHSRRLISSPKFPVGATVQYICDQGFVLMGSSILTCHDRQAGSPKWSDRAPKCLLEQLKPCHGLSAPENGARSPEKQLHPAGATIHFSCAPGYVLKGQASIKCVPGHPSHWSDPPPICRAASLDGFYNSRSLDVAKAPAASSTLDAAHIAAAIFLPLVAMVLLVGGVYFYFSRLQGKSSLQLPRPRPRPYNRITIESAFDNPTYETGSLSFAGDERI

[5] = molecular target: T1, human SEZ6L on cells (293-SEZ6L); experiment: flow cytometry on live 293-SEZ6L cells, Alexa Fluor 488 anti-human IgG secondary [panel C]
[6] = molecular target: T4, human SEZ6 on cells (293-SEZ6); experiment: flow cytometry on live 293-SEZ6 cells, Alexa Fluor 488 anti-human IgG secondary [panel C]
[7] = molecular target: T1, human SEZ6L on cells (293-SEZ6L); experiment: flow cytometry on live 293-SEZ6L cells, Alexa Fluor 488 anti-human IgG secondary [continued), panel K]
[8] = molecular target: T4, human SEZ6 on cells (293-SEZ6); experiment: flow cytometry on live 293-SEZ6 cells, Alexa Fluor 488 anti-human IgG secondary [continued), panel K]
[9] = molecular target: T1, human SEZ6L on cells (293-SEZ6L); experiment: flow cytometry on live 293-SEZ6L cells, Alexa Fluor 488 anti-human IgG secondary [continued), panel J]
[10] = molecular target: T4, human SEZ6 on cells (293-SEZ6); experiment: flow cytometry on live 293-SEZ6 cells, Alexa Fluor 488 anti-human IgG secondary [continued), panel J]
[11] = molecular target: T1, human SEZ6L on cells (293-SEZ6L); experiment: flow cytometry on live 293-SEZ6L cells, Alexa Fluor 488 anti-human IgG secondary [panel D]
[12] = molecular target: T4, human SEZ6 on cells (293-SEZ6); experiment: flow cytometry on live 293-SEZ6 cells, Alexa Fluor 488 anti-human IgG secondary [panel D]
[13] = molecular target: T4, human SEZ6 on cells (293-SEZ6); experiment: flow cytometry on live 293-SEZ6 cells, Alexa Fluor 488 anti-human IgG secondary [continued), panel E]
[14] = molecular target: T1, human SEZ6L on cells (293-SEZ6L); experiment: flow cytometry on live 293-SEZ6L cells, Alexa Fluor 488 anti-human IgG secondary [continued), panel E]
[15] = molecular target: T1, human SEZ6L on cells (293-SEZ6L); experiment: flow cytometry on live 293-SEZ6L cells, Alexa Fluor 488 anti-human IgG secondary [panel B]
[16] = molecular target: T4, human SEZ6 on cells (293-SEZ6); experiment: flow cytometry on live 293-SEZ6 cells, Alexa Fluor 488 anti-human IgG secondary [panel B]
[17] = molecular target: T5, human SEZ6L2 on cells (293-SEZ6L2, HEK 293 cells transfected with human SEZ6L2, and SEZ6L2-expressing tumor … (human, UniProt Q6UXD5 28-910)); experiment: flow cytometry on live 293-SEZ6L2 cells, primary antibody 1 ug/ml, Alexa Fluor 488 anti-human IgG secondary [panel B]
T5 construct: Tumor cell lines express the endogenous protein; also called hSEZ6L2
T5 sequence (Q6UXD5 28-910): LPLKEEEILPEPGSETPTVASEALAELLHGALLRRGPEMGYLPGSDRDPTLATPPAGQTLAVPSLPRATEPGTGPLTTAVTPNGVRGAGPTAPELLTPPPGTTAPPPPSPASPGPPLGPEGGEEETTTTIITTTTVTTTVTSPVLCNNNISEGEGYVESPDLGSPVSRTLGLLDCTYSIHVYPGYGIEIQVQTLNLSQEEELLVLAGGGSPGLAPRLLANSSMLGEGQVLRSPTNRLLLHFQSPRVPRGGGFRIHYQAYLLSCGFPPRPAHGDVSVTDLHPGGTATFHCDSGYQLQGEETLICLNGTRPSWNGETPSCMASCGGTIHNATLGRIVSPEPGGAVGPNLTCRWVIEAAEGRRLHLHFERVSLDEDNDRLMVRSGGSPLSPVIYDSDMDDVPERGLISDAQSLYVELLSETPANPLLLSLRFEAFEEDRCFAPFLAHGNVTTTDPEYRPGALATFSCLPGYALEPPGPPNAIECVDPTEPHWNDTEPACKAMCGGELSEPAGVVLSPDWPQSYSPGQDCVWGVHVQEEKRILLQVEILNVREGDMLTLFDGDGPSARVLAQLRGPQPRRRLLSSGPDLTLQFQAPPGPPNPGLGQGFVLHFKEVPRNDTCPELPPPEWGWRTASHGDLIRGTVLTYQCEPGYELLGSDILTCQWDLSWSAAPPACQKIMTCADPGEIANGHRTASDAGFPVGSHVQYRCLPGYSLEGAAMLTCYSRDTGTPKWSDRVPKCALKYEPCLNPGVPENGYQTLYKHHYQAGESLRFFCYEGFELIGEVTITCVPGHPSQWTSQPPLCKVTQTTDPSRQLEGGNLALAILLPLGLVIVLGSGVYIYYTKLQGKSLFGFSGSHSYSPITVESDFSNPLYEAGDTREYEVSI

binding result [1]: no binding (tested: 1 ug/ml) | Kd [2]: 3 nM | Kd [3]: 3 nM | binding result [4]: no binding (tested: 1 ug/ml)
B1: humanized anti-SEZ6L2 antibody 20C4 (antibody, human IgG1, V domains shown)
VH: EVQLVESGGGLVQPGGSLRLSCAASGFTFTDYYMSWVRQAPGKGLEWVALIRNKANGYTTEYSASVKGRFTISRDNSKNSLYLQMNSLRAEDTAVYYCARNGLYGLFAYWGQGTLVTVSS
VL: DIVMTQTPLSIPVTPGEPASISCRSSTSLLESSGKHRLYWYLQKPGQSPQLLIYYMSNLASGVPDRFSGSGSGTDFTLKISRVEAEDFGVYYCMQSLEYPLTFGAGTKVEIKR
notes: also called 20C4:red

binding result [5]: no binding (tested: 1 ug/ml) | binding result [6]: no binding (tested: 1 ug/ml) | Kd [2]: 0.3 nM | Kd [3]: 0.3 nM
B2: human anti-SEZ6L2 antibody 3A1 (antibody, V domains shown)
VH: QVQLVQSGAEVKKPGASVKVSCKASGFTFTGYYILWMRQAPGQGLEWMGWINPNNGGTHYAQKFQGRVTMTRDTSISTAYMELSRLRSDDTAVYYCARDSGHDWYFDLWGRGTLVTVSS
VL: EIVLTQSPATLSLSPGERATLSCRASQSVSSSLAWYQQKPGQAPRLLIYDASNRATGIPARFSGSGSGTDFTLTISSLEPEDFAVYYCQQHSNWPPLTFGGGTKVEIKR
notes: Fully human antibody from H2L2 mice; it was captured on Protein A and detected with anti-human IgG

binding result [7]: no binding (tested: 1 ug/ml) | binding result [8]: no binding (tested: 1 ug/ml) | Kd [3]: 2 nM
B3: humanized anti-SEZ6L2 antibody 16H8 (antibody, human IgG1, V domains shown)
VH: QIQLVQPGAEVKKPGASVKVSCKASGYTFTSYWMYWVRQAPGQGLEWMGAIYPRDSDTSYNQKFKGRVTMTRVTSTSTVYMELSSLRSEDTAVYYCTRGDYYYGSSYYAMDYWGQGTTVTVSS
VL: DIVMTQSPLSLPVTPGEPASISCSSSKSLLHSNGITYLYWYLQKPGQSPQLLIYRMSNLASGVPDRFSGSGSGTDFTLKISRVEAEDVGVYYCAQMLERPYTFGQGTKVEIKR
notes: Humanized from mu16H8; also called 16H8:A3F5

binding result [9]: no binding (tested: 1 ug/ml) | binding result [10]: no binding (tested: 1 ug/ml) | Kd [2]: 2 nM | Kd [3]: 2 nM
B4: humanized anti-SEZ6L2 antibody 3E2 (antibody, human IgG1, V domains shown)
VH: EVQLVESGGGLVQPGGSLKLSCAASGFSFNTITMNWVRQASGKGLEWVGRIRSKSNNYATYYADAVKDRFTISRDDSKNTAYLQMNSLKTEDTAVYYCVRGIFSGYVYAMDYWGQGTLVTVSS
VL: DVVMTQSPLSLPVTVGQPASISCRSSQSIVHSNGNTYLEWFQQRPGQSPRVLIYKVSNRFSGVPDRFSGSGSGTDFTLKISRVEAEDVGVYYCFQGSHVPYTFGGGTKLEIKR
notes: also called 3E2:7D4

binding result [11]: no binding (tested: 1 ug/ml) | Kd [2]: 3 nM | Kd [3]: 3 nM | binding result [12]: no binding (tested: 1 ug/ml)
B5: human anti-SEZ6L2 antibody 3A2 (antibody, V domains shown)
VH: QVQLQESGPGLVKPSGTLSLTCAVSGGSISSYHWWSWVRQPPGKGLEWIGEIYHSGSTNYNPSLKSRVTISVDKSKNQFSLKLSSVTAADTAVYYCARWGRIAVADYWGQGTLVTVSS
VL: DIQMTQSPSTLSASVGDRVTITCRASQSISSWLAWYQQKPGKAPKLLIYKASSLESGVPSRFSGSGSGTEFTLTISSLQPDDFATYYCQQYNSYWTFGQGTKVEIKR
notes: Fully human antibody from H2L2 mice

binding result [13]: no binding (tested: 1 ug/ml) | binding result [14]: no binding (tested: 1 ug/ml) | Kd [2]: 26 nM | Kd [3]: 24 nM
B6: human anti-SEZ6L2 antibody 3A3 (antibody, V domains shown)
VH: QVQLQESGPGLVKPSGTLSLTCAVSGGSISSSNWWSWVRQPPGKGLEWIGEIYHSGSTNYNPSLKSRVTISVDKSKNQFSLKLSSVTAADTAVYYCAAYSGSYFEYWGQGTLVTVSS
VL: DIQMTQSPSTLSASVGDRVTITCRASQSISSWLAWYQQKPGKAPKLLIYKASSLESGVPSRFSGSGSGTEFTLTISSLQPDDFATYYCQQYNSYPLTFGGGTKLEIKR
notes: as for B5

binding result [15]: no binding (tested: 1 ug/ml) | binding result [16]: no binding (tested: 1 ug/ml) | binding result [17]: binds
B7: human anti-SEZ6L2 antibody 1C6 (antibody, V domains shown)
VH: QVQLQESGPGLVKPSETLSLTCTVSGGSISSYYWSWIRQPPGKGLEWIGYIYNSGSTNYNPSLKSRVTISVDTSKNQFSLKLSSVTAADTAVYYCARRGDQGYWYFDLWGRGTLVTVSS
VL: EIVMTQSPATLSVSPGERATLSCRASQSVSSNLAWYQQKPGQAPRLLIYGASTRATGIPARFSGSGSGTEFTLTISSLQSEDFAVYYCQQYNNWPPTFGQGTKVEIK
notes: also called 106
